Experimental data: PMC3522052, “Association of HLA-DR1 with the allergic response to the major mugwort pollen allergen: molecular background” (BMC Immunology, 2012)

Columns and labels:
HLA-DRB1*04:01 = biological target: T1, HLA-DRB1*04:01 (Homo sapiens, UniProt P01903+P01911, A100K/A169T/F76Y/I96L/K127E/L162R/M171V/N62H/P40V/Q125Y/R42H/S133A/S149N/S66Y/V115G/V209L/W38E); test: Peptide/MHC-binding assay, competitive ELISA against biotinylated HA306-318; details: for ratio of IC50 of Art v 1-peptides/HA306-318, HLA-DR4: relative binding activity, competitive ELISA, pH 6.0, 24 h at 37°C, two independent experiments; for binding to DR4 molecules, in words: competition with HA306-318, stated for DR1 or DR4
T1 construct: endogenous in cells
Experimental: (§1) HLA-DRB1*01:01 and -DRB1*04:01 molecules were purified from homozygous EBV cells by affinity chromatography using mAb L243 as described before. Peptide binding to HLA-DR molecules was assessed by competitive ELISA. Dilutions were prepared in 10 mM phosphate, 150 mM NaCl, […], 10 mM citrate (pH = 6.0). […] After 24 hours of incubation at 37°C, peptide/MHC-class II complexes were added to 96 well plates coated with L243 antibody and incubated at RT for 2 hours. Bound biotinylated peptides were detected by Streptavidin-alkaline phosphatase conjugate (GE healthcare, Saclay, France) and 4-methyl-umbelliferyl phosphate (Sigma-Aldrich, St. Quentin Fallavier, France) as substrate. Emitted fluorescence was measured at 450 nm upon excitation at 365 nm by a Gemini fluorometer (Molecular probes, St Grégoire, France). […] Two independent experiments were performed to evaluate competitive binding.

HLA-DRB1*01:01 = biological target: T2, HLA-DRB1*01:01 (Homo sapiens, UniProt P01903+P01911, A100R/D57E/F55L/F60I/F76Y/I96L/L162R/M171V/P40L/Q125E/R42F/V115G/Y59C); test: as above; details: for ratio of IC50 of Art v 1-peptides/HA306-318, HLA-DR1: relative binding activity, competitive ELISA, pH 6.0, 24 h at 37°C, two independent experiments; for binding to DR1 molecules, in words: competition with HA306-318, stated for DR1 or DR4
T2 construct: endogenous in cells
Experimental: as §1

[1] = biological target: HLA-DRB1*01:01 molecules (human (endogenous in homozygous EBV cells)); test: ELISA
[2] = biological target: HLA-DRB1*04:01 molecules (human (endogenous in homozygous EBV cells)); test: ELISA
[3] = tested on: Art v 1_25-36-specific TCL and TCC with HLA-DR1-expressing APC; type: cell-based, human
Experimental: (§2) TCL or TCC (5 × 10^4 cells) were stimulated for 3 days with irradiated (60 Gy) APC and peptides at an optimum concentration of 3 μM, if not indicated otherwise. Proliferation was assessed by ^3H-thymidine uptake within the last 16 hours of incubation.

[4] = tested on: Art v 1_25-36-specific TCL and TCC with HLA-DR4-expressing APC; type: cell-based, human
Experimental: as §2

[5] = text statement for both HLA molecules

Row | other [1] | other [2] | Molecule | ratio of IC50 of Art v 1-peptides/HA306-318, HLA-DR4 (HLA-DRB1*04:01) | ratio of IC50 of Art v 1-peptides/HA306-318, HLA-DR1 (HLA-DRB1*01:01) | also measured
1 | 2600 | – | KCAEWEKAQHGA [Art v 1_(25-36) Ala-27] | – | – | –
2 | 6 | 28 | KCIEWAKAQHGA [Art v 1_(25-36) Ala-30] | – | – | –
3 | 8 | 17 | KCIEWEKAQAGA [Art v 1_(25-36) Ala-34] | – | – | –
4 | 5 | 5 | KCIEWEKAQHAA [Art v 1_(25-36) Ala-35] | – | – | –
5 | 6 | 11 | KCIAWEKAQHGA [Art v 1_(25-36) Ala-28] | – | – | –
6 | 63 | 149 | KCIEWEKGQHGA [Art v 1_(25-36) Gly-32] | – | – | –
7 | 17 | 17 | KCIEWEAAQHGA [Art v 1_(25-36) Ala-31] | – | – | –

The remaining lines, values behind:

Row | Molecule | other [1] | other [2] | ratio of IC50 of Art v 1-peptides/HA306-318, HLA-DR4 (HLA-DRB1*04:01) | ratio of IC50 of Art v 1-peptides/HA306-318, HLA-DR1 (HLA-DRB1*01:01) | also measured
8 | KCIEWEKAQHAA [Ala-35, mono-substituted peptide of Art v 1_25-36] | – | – | 5 | 5 | –
9 | KCIEWAKAQHGA [Ala-30, mono-substituted peptide of Art v 1_25-36] | – | – | 28 | 6 | –
10 | Art v 1_(22-33) (peptide) | 2020 | 756 | – | – | –
11 | Art v 1_(25-36) Ala-26 (peptide) | 16 | 3 | – | – | –
12 | NKKCDKKCIEWE [Art v 1_19–30] | – | – | >926 | >55032 | binding to DR4 molecules, in words (HLA-DRB1*04:01): negligible; binding to DR1 molecules, in words (HLA-DRB1*01:01): negligible
13 | Art v 1_(25-36) (peptide) | 14 | 15 | – | – | –
14 | KCIEWEKAQAGA [Ala-34, mono-substituted peptide of Art v 1_25-36] | – | – | 17 | 8 | –
15 | KCIEWEAAQHGA [Ala-31, mono-substituted peptide of Art v 1_25-36] | – | – | 17 | 17 | –
16 | KCIEWEKGQHGA [Gly-32, mono-substituted peptide of Art v 1_25-36] | – | – | 149 | 63 | –
17 | CDKKCIEWEKAQ [Art v 1_22-33] | – | – | 756 | 2016 | binding to DR4 molecules, in words (HLA-DRB1*04:01): weak; binding to DR1 molecules, in words (HLA-DRB1*01:01): weak
18 | KCAEWEKAQHGA [Ala-27, mono-substituted peptide of Art v 1_25-36] | – | – | >926 | 2596 | –
19 | KAIEWEKAGHGA [Ala-26, mono-substituted peptide of Art v 1_25-36] | – | – | 3 | 16 | –
20 | KCIAWEKAQHGA [Ala-28, mono-substituted peptide of Art v 1_25-36] | – | – | 11 | 6 | –
21 | KCIEWEKAQHGA [Art v 1_25-36] | – | – | 15 | 14 | median proliferation of TCC, DR1 [3]: 36,640 dpm; median proliferation of TCL, DR1 [3]: 31,630 dpm; TCC that did not respond to presentation by DR4 [4]: 18%; TCC that recognized the peptide presented by DR4 [4]: 82%; median proliferation of TCC, DR4 [4]: 24,125 dpm; median proliferation of TCL, DR4 [4]: 25,985 dpm; binding less than HA306-318, HLA-DR4 (HLA-DRB1*04:01; [5]): 15 fold; binding less than HA306-318, HLA-DR1 (HLA-DRB1*01:01; [5]): 15 fold
